Measured values as given in patent US20170226155A1 (TRUSTEES OF TUFTS COLLEGE, published 2017).
Where no end group is shown, it is not given here. [ ]: non-standard residue; d: D form. The star is where a group is joined. boroPro = OB(O)[C@@H]1CCCN1*

How the values were obtained:
[1] = biological target: Dipeptidyl amino peptidase type IV (DPP IV); test: cell-based or functional assay
[2] = biological target: Dipeptidyl amino peptidase type IV (DPP IV); test: cell-based or functional assay; remark: listed apart in the source

B1: TyrProPheboroPro (peptide)
peptide: YPF[boroPro]
[1]
  IC50 at ten minutes, pH 2: 50 nM
  IC50 at ten minutes, pH 8: 60 nM

B2: AlaAlaProboroPro (peptide)
peptide: AAP[boroPro]
[2]
  IC50, pH 2 (Tetrapeptide Prodrugs): 3 mM
  IC50, pH 8 (Tetrapeptide Prodrugs): 2 mM
[1]
  IC50 at ten minutes, pH 2: 3 µM
